Results reported in publication PMC9521185, “Self-assembly and label-free fluorescent aptasensor based on deoxyribonucleic acid intercalated dyes for detecting lactoferrin in milk powder”.

Biological target: lactoferrin (LF) (bovine (milk), UniProt P24627 20-708)
Assay: PicoGreen dye-displacement fluorescence; PicoGreen; LF 100 nM and 1 uM; linear 20-500 nM, LOD 3 nM; Buffer, salt, pH and temperature not in the material; fluorescence ex 485 nm / em 528 nm, microplate reader
Settings: protein: commercial; label: none (label-free; PicoGreen intercalated)

Chain of lactoferrin (LF) (P24627 20-708): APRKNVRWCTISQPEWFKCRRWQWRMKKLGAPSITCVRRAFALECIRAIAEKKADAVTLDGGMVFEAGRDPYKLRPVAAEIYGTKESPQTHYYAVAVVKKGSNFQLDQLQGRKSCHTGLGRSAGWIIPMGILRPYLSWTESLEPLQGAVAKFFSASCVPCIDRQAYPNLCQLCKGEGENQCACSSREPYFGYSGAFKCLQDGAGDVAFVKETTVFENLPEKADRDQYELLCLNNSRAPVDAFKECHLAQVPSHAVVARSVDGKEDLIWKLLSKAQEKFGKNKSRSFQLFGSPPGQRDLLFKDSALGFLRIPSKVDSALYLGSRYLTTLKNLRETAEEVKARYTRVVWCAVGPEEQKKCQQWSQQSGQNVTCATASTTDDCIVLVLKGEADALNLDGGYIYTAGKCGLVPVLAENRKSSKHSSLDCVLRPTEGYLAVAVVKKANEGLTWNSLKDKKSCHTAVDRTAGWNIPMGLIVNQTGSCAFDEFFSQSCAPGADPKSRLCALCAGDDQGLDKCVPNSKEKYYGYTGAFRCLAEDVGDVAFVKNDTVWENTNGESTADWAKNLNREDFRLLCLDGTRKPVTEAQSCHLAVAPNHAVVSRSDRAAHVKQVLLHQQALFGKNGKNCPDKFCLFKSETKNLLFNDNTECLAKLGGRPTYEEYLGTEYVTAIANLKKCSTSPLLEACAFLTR

B1: LF aptamer (ssDNA)
DNA: TGGTGCTGCCCCTAGTCTCCGGCTGATAGCTGCTTCTTGG
binding result: binds
